Assay results published in publication PMC11969024 (2025).

B1: peptide HD2 (from tick evasin EVA4) / CXCL13 (biotinylated, synthetic) (parent complex)
chain 1: EEDDYTAYAPLTCYFT
chain 2: VLEVYYTSLRCRCVQESSVFIPRRFIDRIQILPRGNGCPRKEIIVWKKNKSIVCVDPQAEWIQRMMEVLRKRSSSTLPVPVFKRKIP

Variants of: B1

| Variant | enrichment |
| --- | --- |
| chain 1 EEDDYTAYASLTCYFT | -4.38 log2 (difference from the parental peptide) |
| chain 1 EEDDYTAYAGLTCYFT | 1.04 log2 (difference from the parental peptide) |
| chain 1 EEDDYTAYAMLTCYFT | -7.27 log2 (difference from the parental peptide) |
| chain 1 EEPDYTAYAPLTCYFT | -5.29 log2 (difference from the parental peptide) |
| chain 1 EEEDYTAYAPLTCYFT | 0.606 log2 (difference from the parental peptide) |
| chain 1 EEFDYTAYAPLTCYFT | -4.35 log2 (difference from the parental peptide) |
| chain 1 EEIDYTAYAPLTCYFT | -5.63 log2 (difference from the parental peptide) |
| chain 1 EENDYTAYAPLTCYFT | -4.32 log2 (difference from the parental peptide) |
| chain 1 EESDYTAYAPLTCYFT | -3.94 log2 (difference from the parental peptide) |
| chain 1 EEDDYTAYRPLTCYFT | -4.49 log2 (difference from the parental peptide) |
| chain 1 EEDDYTAYSPLTCYFT | -1.23 log2 (difference from the parental peptide) |
| chain 1 EEDDYTAYWPLTCYFT | 1.81 log2 (difference from the parental peptide) |
| chain 1 EEDDYTAYMPLTCYFT | -0.268 log2 (difference from the parental peptide) |
| chain 1 EEDDYTAYGPLTCYFT | 0.486 log2 (difference from the parental peptide) |
| chain 1 EEDDYTAYIPLTCYFT | -5.77 log2 (difference from the parental peptide) |
| chain 1 EEDDYTAYAPLTCYLT | -2.76 log2 (difference from the parental peptide) |
| chain 1 EEDDYTAYAPLTCYGT | -9.13 log2 (difference from the parental peptide) |
| chain 1 EEDDYTAYAPLTCYET | -7.7 log2 (difference from the parental peptide) |
| chain 1 EEDDYTAYAPLTCYRT | -6.31 log2 (difference from the parental peptide) |
| chain 1 EEDDYTAYAPLTCYTT | -5.1 log2 (difference from the parental peptide) |
| chain 1 EEDDYTAYAPLTCYPT | -3.33 log2 (difference from the parental peptide) |
| chain 1 EEDDYTAYAPLTCYCT | -7.62 log2 (difference from the parental peptide) |
| chain 1 EEDDYTAYAPLTCYWT | -3.2 log2 (difference from the parental peptide) |

| Variant | enrichment |
| --- | --- |
| chain 1 EEDDYTAYAPLTCYVT | -2.57 log2 (difference from the parental peptide) |
| chain 1 EEDDYTAYAPLTCYIT | -5.03 log2 (difference from the parental peptide) |
| chain 1 EEDDYTAYAPLTCYMT | -4.67 log2 (difference from the parental peptide) |
| chain 1 EEDDYTAYAPLTCYAT | -4.66 log2 (difference from the parental peptide) |
| chain 1 EEDDYTAYAPCTCYFT | -5.19 log2 (difference from the parental peptide) |
| chain 1 EEDDYTAYAPMTCYFT | 3.77 log2 (difference from the parental peptide) |
| chain 1 EEDDYTAYAPHTCYFT | -5.03 log2 (difference from the parental peptide) |
| chain 1 EEDDYTAYAPSTCYFT | -8.97 log2 (difference from the parental peptide) |
| chain 1 EEDDYTAYAPNTCYFT | -7.22 log2 (difference from the parental peptide) |
| chain 1 EEDEYTAYAPLTCYFT | -0.811 log2 (difference from the parental peptide) |
| chain 1 EEDQYTAYAPLTCYFT | -2.67 log2 (difference from the parental peptide) |
| chain 1 EEDLYTAYAPLTCYFT | -4.8 log2 (difference from the parental peptide) |
| chain 1 EEDPYTAYAPLTCYFT | -1.45 log2 (difference from the parental peptide) |
| chain 1 EEDMYTAYAPLTCYFT | -5.4 log2 (difference from the parental peptide) |
| chain 1 EEDIYTAYAPLTCYFT | -4.76 log2 (difference from the parental peptide) |
| chain 1 EEDAYTAYAPLTCYFT | -6.85 log2 (difference from the parental peptide) |
| chain 1 EEDSYTAYAPLTCYFT | -5.37 log2 (difference from the parental peptide) |
| chain 1 WEDDYTAYAPLTCYFT | -0.426 log2 (difference from the parental peptide) |
| chain 1 YEDDYTAYAPLTCYFT | 0.38 log2 (difference from the parental peptide) |
| chain 1 REDDYTAYAPLTCYFT | -5.75 log2 (difference from the parental peptide) |
| chain 1 GEDDYTAYAPLTCYFT | -1.69 log2 (difference from the parental peptide) |
| chain 1 FEDDYTAYAPLTCYFT | -1.39 log2 (difference from the parental peptide) |
| chain 1 VEDDYTAYAPLTCYFT | -2.3 log2 (difference from the parental peptide) |

| Variant | enrichment |
| --- | --- |
| chain 1 LEDDYTAYAPLTCYFT | -1.96 log2 (difference from the parental peptide) |
| chain 1 IEDDYTAYAPLTCYFT | -1.63 log2 (difference from the parental peptide) |
| chain 1 MEDDYTAYAPLTCYFT | -0.674 log2 (difference from the parental peptide) |
| chain 1 NEDDYTAYAPLTCYFT | -1.5 log2 (difference from the parental peptide) |
| chain 1 EMDDYTAYAPLTCYFT | -1.37 log2 (difference from the parental peptide) |
| chain 1 EHDDYTAYAPLTCYFT | -3.83 log2 (difference from the parental peptide) |
| chain 1 EDDDYTAYAPLTCYFT | 1.8 log2 (difference from the parental peptide) |
| chain 1 EVDDYTAYAPLTCYFT | -1.21 log2 (difference from the parental peptide) |
| chain 1 EQDDYTAYAPLTCYFT | -2.09 log2 (difference from the parental peptide) |
| chain 1 EEDDYTAYAPLTAYFT | -7.08 log2 (difference from the parental peptide) |
| chain 1 EEDDYTAYAPLTQYFT | -8.15 log2 (difference from the parental peptide) |
| chain 1 EEDDYTAYAPLTYYFT | -6.52 log2 (difference from the parental peptide) |
| chain 1 EEDDYTAYAPLTNYFT | -4.98 log2 (difference from the parental peptide) |
| chain 1 EEDDYTAYAPLTSYFT | -4.26 log2 (difference from the parental peptide) |
| chain 1 EEDDYTAYAPLTPYFT | -7.37 log2 (difference from the parental peptide) |
| chain 1 EEDDYTAYAPLTTYFT | -5.19 log2 (difference from the parental peptide) |
| chain 1 EEDDYTAQAPLTCYFT | -5.13 log2 (difference from the parental peptide) |
| chain 1 EEDDYTATAPLTCYFT | -4.45 log2 (difference from the parental peptide) |
| chain 1 EEDDYTAMAPLTCYFT | -1.68 log2 (difference from the parental peptide) |
| chain 1 EEDDYTALAPLTCYFT | -2.2 log2 (difference from the parental peptide) |
| chain 1 EEDDYTADAPLTCYFT | 0.221 log2 (difference from the parental peptide) |
| chain 1 EEDDYTANAPLTCYFT | -3.32 log2 (difference from the parental peptide) |
| chain 1 EEDDQTAYAPLTCYFT | -3.13 log2 (difference from the parental peptide) |

| Variant | enrichment |
| --- | --- |
| chain 1 EEDDLTAYAPLTCYFT | -1.23 log2 (difference from the parental peptide) |
| chain 1 EEDDSTAYAPLTCYFT | -3.07 log2 (difference from the parental peptide) |
| chain 1 EEDDETAYAPLTCYFT | -0.259 log2 (difference from the parental peptide) |
| chain 1 EEDDFTAYAPLTCYFT | -0.242 log2 (difference from the parental peptide) |
| chain 1 EEDDNTAYAPLTCYFT | -2.57 log2 (difference from the parental peptide) |
| chain 1 EEDDYAAYAPLTCYFT | 1.86 log2 (difference from the parental peptide) |
| chain 1 EEDDYPAYAPLTCYFT | -0.391 log2 (difference from the parental peptide) |
| chain 1 EEDDYHAYAPLTCYFT | 0.439 log2 (difference from the parental peptide) |
| chain 1 EEDDYQAYAPLTCYFT | 1.51 log2 (difference from the parental peptide) |
| chain 1 EEDDYNAYAPLTCYFT | 2.54 log2 (difference from the parental peptide) |
| chain 1 EEDDYIAYAPLTCYFT | -3.55 log2 (difference from the parental peptide) |
| chain 1 EEDDYEAYAPLTCYFT | 4.71 log2 (difference from the parental peptide) |
| chain 1 EEDDYWAYAPLTCYFT | 5.97 log2 (difference from the parental peptide) |
| chain 1 EEDDYVAYAPLTCYFT | -2.98 log2 (difference from the parental peptide) |
| chain 1 EEDDYRAYAPLTCYFT | -1.88 log2 (difference from the parental peptide) |
| chain 1 EEDDYCAYAPLTCYFT | -9.9 log2 (difference from the parental peptide) |
| chain 1 EEDDYDAYAPLTCYFT | 5.14 log2 (difference from the parental peptide) |
| chain 1 EEDDYGAYAPLTCYFT | 4.13 log2 (difference from the parental peptide) |
| chain 1 EEDDYTAYAPLTCCFT | -6.09 log2 (difference from the parental peptide) |
| chain 1 EEDDYTNYAPLTCYFT | 2.99 log2 (difference from the parental peptide) |
| chain 1 EEDDYTLYAPLTCYFT | 1.64 log2 (difference from the parental peptide) |
| chain 1 EEDDYTQYAPLTCYFT | 3.15 log2 (difference from the parental peptide) |
| chain 1 EEDDYTRYAPLTCYFT | -1.49 log2 (difference from the parental peptide) |

| Variant | enrichment |
| --- | --- |
| chain 1 EEDDYTHYAPLTCYFT | 0.018 log2 (difference from the parental peptide) |
| chain 1 EEDDYTSYAPLTCYFT | 2.57 log2 (difference from the parental peptide) |
| chain 1 EEDDYTYYAPLTCYFT | 3.99 log2 (difference from the parental peptide) |
| chain 1 EEDDYTDYAPLTCYFT | 5.88 log2 (difference from the parental peptide) |
| chain 1 EEDDYTEYAPLTCYFT | 5.25 log2 (difference from the parental peptide) |
| chain 1 EEDDYTAYAPLHCYFT | -5.34 log2 (difference from the parental peptide) |
| chain 1 EEDDYTAYAPLLCYFT | -1.72 log2 (difference from the parental peptide) |
| chain 1 EEDDYTAYAPLACYFT | -5.98 log2 (difference from the parental peptide) |
| chain 1 EEDDYTAYAPLQCYFT | -3.59 log2 (difference from the parental peptide) |
| chain 1 EEDDYTAYAPLNCYFT | -4.95 log2 (difference from the parental peptide) |
| chain 1 EEDDYTAYAPLTCYFI | -0.117 log2 (difference from the parental peptide) |
| chain 1 EEDDYTAYAPLTCYFE | 1.77 log2 (difference from the parental peptide) |
| chain 1 EEDDYTAYAPLTCYFH | 0.0142 log2 (difference from the parental peptide) |
| chain 1 EEDDYTAYAPLTCYFM | 0.915 log2 (difference from the parental peptide) |
| chain 1 EEDDYTAYAPLTCYFL | -0.207 log2 (difference from the parental peptide) |
| chain 1 EEDDYTAYAPLTCYFK | -6.05 log2 (difference from the parental peptide) |
| chain 1 EEDDYTAYAPLTCYFQ | -1.21 log2 (difference from the parental peptide) |
| chain 1 EEDDYTAYAPLTCYFW | -0.0649 log2 (difference from the parental peptide) |
| chain 1 EEDDYTAYAPLTCYFN | -0.837 log2 (difference from the parental peptide) |
| chain 1 EEDDYTAYAPLTCYFV | -0.466 log2 (difference from the parental peptide) |
